Laboratory results published in patent US8877206B2, “Stimulation of an immune response by cationic lipids” (PDS Biotechnology Corporation, priority 2007, dated 2014).
Ends that are not written are not given here.

Experiments:
[1] = Peptide entrapment efficiency in DOTAP liposomes (LavaPep); assay type: physicochemical; settings: molar ratio lipopeptide: DOTAP = 1:40, mean±SD (n=3)
Description: Cationic lipid/antigen complexes were prepared as described above. Peptide encapsulation efficiency was determined by the percentage of the liposome-bound peptide using LavaPep™ peptide quantification kit (commercially available from Fluorotechnics of Sydney, Australia). Since unincorporated lipopeptide aggregated and could not pass the exclusion filter, the incorporated lipopeptide was measured as the amount associated with the extruded liposomes in the presence of 1% SDS and reported as the mean±SD (n=3). For water-soluble peptide such as native E7 and KSS-E7, the unbound peptide was separated from the complex by a Microcon® centrifugal filtration device (commercially available from Millipore of Bedford, Mass.). The concentration of the unbound peptide was measured using LavaPep™ according to the manufacturer's instruction.

[2] = molecular target: T1, H-2D^b molecules on RMA-S cells (Mus musculus, UniProt P01899); assay: MHC class I binding on RMA-S cells, H-2D^b; assay type: cell-based; settings: peptide 10 μM, overnight 27° C. then 2 h 37° C.; FIG. 13
T1 construct: it caused a four-fold up-regulation of H-2D^b molecules on RMA-S cells compared to the control; endogenous in cells; host or cells: RMA-S mouse lymphoma cells
T1 sequence (P01899 25-362): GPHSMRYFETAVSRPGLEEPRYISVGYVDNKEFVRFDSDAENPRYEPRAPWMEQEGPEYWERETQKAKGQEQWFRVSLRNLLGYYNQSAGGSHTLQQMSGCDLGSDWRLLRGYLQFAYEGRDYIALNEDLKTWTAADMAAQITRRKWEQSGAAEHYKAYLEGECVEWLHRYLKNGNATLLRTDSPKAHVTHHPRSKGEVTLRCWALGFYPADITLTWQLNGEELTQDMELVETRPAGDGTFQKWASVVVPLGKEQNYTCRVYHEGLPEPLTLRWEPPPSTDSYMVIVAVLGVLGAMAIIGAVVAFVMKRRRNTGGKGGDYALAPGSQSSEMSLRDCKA
T1 sequence (P01887 21-119 partner): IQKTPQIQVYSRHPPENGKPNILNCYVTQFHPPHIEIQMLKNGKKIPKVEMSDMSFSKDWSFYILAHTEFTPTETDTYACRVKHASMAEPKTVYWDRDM

[3] = molecular target: T2, H-2K^b molecules on RMA-S cells (Mus musculus, UniProt P01901); assay: MHC class I binding on RMA-S cells, H-2K^b; assay type: cell-based; settings: peptide 10 μM
T2 construct: endogenous in cells; host or cells: RMA-S mouse lymphoma cells
T2 sequence (P01901 22-369): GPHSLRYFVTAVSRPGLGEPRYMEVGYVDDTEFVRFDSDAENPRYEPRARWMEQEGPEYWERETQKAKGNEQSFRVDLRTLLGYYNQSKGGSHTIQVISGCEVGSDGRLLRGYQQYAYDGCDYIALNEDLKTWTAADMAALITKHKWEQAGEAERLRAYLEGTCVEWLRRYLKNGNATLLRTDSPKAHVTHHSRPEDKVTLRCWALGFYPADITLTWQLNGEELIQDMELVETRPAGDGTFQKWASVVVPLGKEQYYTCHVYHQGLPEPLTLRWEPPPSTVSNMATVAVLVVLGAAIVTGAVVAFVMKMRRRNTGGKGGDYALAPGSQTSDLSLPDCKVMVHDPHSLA
T2 sequence (P01887 21-119 partner): T1 sequence (P01887 21-119 partner)

[4] = E7 peptide association with the liposome; assay type: physicochemical; settings: 0.7 mg lipids and 0.1 mg E7 per mL (molar ratio=11:1)
Description: All lipids were purchased from Avanti Polar Lipids (Alabaster Ala.). Small unilamellar DOTAP, DOEPC, and DOTMA liposomes were prepared by thin film hydration followed by extrusion. The lipid, with or without a drug, in chloroform was dried as a thin layer under a stream of nitrogen in a glass tube. The thin film was vacuum desiccated for 2-3 h and then re-hydrated in cell culture grade water (commercially available from Cambrex of Walkersville, Md.) or buffer containing E7 peptide to a final concentration of 0.7 mg lipids and 0.1 mg E7 per mL (molar ratio=11:1). The lipid dispersion was sequentially extruded through polycarbonate membranes with pore size of 0.4, 0.2 and 0.1 μm. The un-entrapped peptide was not removed. The liposomes were stored at 4° C. until use. E7 peptide association with the liposome was determined by measuring the percentage of liposome-bound peptide. In brief, unbound E7 peptide from DOTAP/E7 or DOTAP/E7/drug (MAP kinase inhibitor) complexes was separated by a Microcon® centrifugal filtrate devices (Millipore, Bedford, Mass.) and the concentration of unbound peptide was measured by Micro BC™ Protein Assay Kit (Pierce, Rockford, Ill. The efficiency of peptide association was determined as percent […] peptide. Approximately 30% of E7 peptide was associated with the liposomes.

TC-1 tumor = assay: TC-1 HPV-positive tumor growth in treated mice; assay type: in vivo, C57BL/6 mice; settings: formulated in the DOTAP/antigen complex; FIG. 11
CD8+ T cells = assay: IFN-γ producing CD8+ T cells in spleen after immunization; assay type: in vivo, mice; settings: formulated in DOTAP liposomes; 5 nmol peptide; FIG. 12

Substance | Entrapment efficiency (%) [1] | Entrapment efficiency (%) ([1]; listed as E7) | Up-regulation of H-2D^b molecules (mean fluorescence) compared to the control [2] | Up-regulation of H-2K^b molecules [3] | E7 peptide associated with the liposomes [4] | Anti-tumor activity compared with native E7 (TC-1 tumor) | Number of IFN-γ producing CD8+ cells vs native E7 in DOTAP liposomes (CD8+ T cells)
RAHYNIVTF [Native E7] | 27.1 ± 5.8% | about 25% | four-fold | No up-regulation | Approximately 30% | – | –
KSS-E7: E7 peptide RAHYNIVTF elongated with KSS (lysine-serine-serine) spacer, no lipid (not fully specified (N-terminus); also: KSS spacer added, end not given here) | 26.4 ± 6.1% | – | 8 fold | No up-regulation | – | superior anti-tumor activity | superior result than the native E7
